Columns and labels:
Test in all cases: cell-based or functional assay
[1] = biological target: RSV F glycoprotein of MARM v1269 (strain A2 escape mutant, substitution at aa 389) (respiratory syncytial virus strain A2), P03420
[2] = biological target: RSV F glycoprotein of MARM v1302A/1 (strain A2 escape mutant, substitutions at aa 241/421) (respiratory syncytial virus strain A2), P03420
[3] = biological target: RSV F glycoprotein of MARM v1302A/6 (strain A2 escape mutant, substitutions at aa 241/421) (respiratory syncytial virus strain A2), P03420
[4] = biological target: RSV F glycoprotein of MARM v1308F (strain A2 escape mutant, substitutions at aa 241/421) (respiratory syncytial virus strain A2), P03420

B1: human monoclonal Fab RSVF2-5 (Fab, V domains shown)
VH: LEESGGDLVQPGRSLRLSCSTSGFSFGDYPVNWFRQAPGKGLEWLGIVRSRLYGGTLQYAASVEGRFTISRDDSKSIAYLHMNSLKSEDTAVYYCGVPVANIDYWGQGTLVTVSSASTKGPSS
VL: LTQPHSVSESLGKTVTISCTRAGGRIASNYVQWYQQRPGSSPTTVIYEDNQRPFGVPDRFSGSIDTSSNSASLTISGLKTEDEADYYCQSYDSENPWVFGGGTKLTVLG
Dose for 60% plaque reduction [1]: < 0.3 µg/mL
Dose for 60% plaque reduction [2]: 1.4 µg/mL
Dose for 60% plaque reduction [3]: < 0.3 µg/mL
Dose for 60% plaque reduction [4]: 1 µg/mL

— US20040005324A1
